Assay results: article PMC9267027, “Discovery of a New Microbial Origin Cold-Active Neopullulanase Capable for Effective Conversion of Pullulan to Panose” (International Journal of Molecular Sciences, 2022)
Several values for one entry are separate records, joined by “and”; a condition that tells them apart may be missing. Equal entries are not always repeated.

Biological target: the molecule itself
Test: AUC; sedimentation velocity, 50 mM Na2HPO4-NaH2PO4 buffer pH 7.0, 20 °C, 38,000 rpm, absorbance at 280 nm, c(s) model in SEDFIT; oligomeric state

B1: Maltogenic amylase (MAase) ThMA from the Thermus strain (enzyme)
chain: MRKEAIHHRSTDNFAYAYDSETLHLRLQTKKNDVDHVELLFGDPYEWHDGAWQFQTMPMRKTGSDGLFDYWLAEVKPPYRRLRYGFVLRAGGEKLVYTEKGFYHEAPSDDTAYYFCFPFLHRVDLFQAPDWVKDTVWYQIFPERFANGNPAISPKGARPWGSEDPTPTSFFGGDLQGIIDHLDYLADLGITGIYLTPIFRAPSNHKYDTADYFEIDPHFGDKETLKTLVKRCHEKGIRVMLDAVFNHCGYEFAPFQDVLKNGAASRYKDWFHIREFPLQTEPRPNYDTFAFVPHMPKLNTAHPEVKRYLLDVATYWIREFDIDGWRLDVANEIDHQFWREFRQAVKALKPDVYILGEIWHDAMPWLRGDQFDAVMNYPLADAALRFFAKEDMSASEFADRLMHVLHSYPKQVNEAAFNLLGSHDTPRLLTVCGGDVRKVKLLFLFQLTFTGSPCIYYGDEIGMTGGNDPECRKCMVWDPEKQNKELYEHVKQLIALRKQYRALRRGDVAFLTADDEVNHLVYAKTDGNETVMIIINRSNEAAEIPMPIDARGKWLVNLLTGERFAAEAETLCVSLPPYGFVLYAVESW
notes: ThMA, maltogenic amylase of a Thermus strain (AAC15072.1); used as the control in analytical ultracentrifugation; the construct is not described
- stoichiometry N: 2 and 4
